Drawing on PMC6327262, this text covers Km, kcat and kcat/Km for one protein.

Substrate in this data set: O=[N+]([O-])c1ccc(O[C@@H]2O[C@H](CO)[C@@H](O)[C@H](O)[C@H]2O)cc1
In words: purified protein. Particulars: 25 mM sodium phosphate pH 6.0, 45 °C, 1 μg/mL enzyme, 0.1-5.0 mM substrate, no inhibitor.

The term Km denotes the substrate concentration at which the rate is half of its maximum. Broadly, the kcat is the maximal rate divided by the concentration of active sites. For orientation: kcat/Km means the turnover number divided by the Michaelis constant.

B1: rBGLa (Limosilactobacillus antri DSM 16041) (protein)
chain: MVKIDLQFVQGLTLEERAALVSGKDFWFTAKVPGVDRMMMSDGPSGLRKQDIDVAPTDVNNSVDAVCFPSSALTASSFDDQLLFKLGHHLGVAASAEKLGVLLGPGVNIKRSPLAGRNFEYFSEDPLLAGRMGTAYVKGVQEEGVGVSVKHFAANNRENQRFTSSSNIDERALREIYLAQFERIVKEAQPATLMCSYNRLNGTLNSQNQRLLTEILRNEWGFQGLVMSDWGAVADHVAAIKAGLDLEMPGKDQASVDEIVQAVKEGRLQESTLNRSALRVLQMVEKWGKDVSRTESYDKEEQHEFARQVADDSIVLLKNDNQELPLHTGGSLAVIGELAAKPRFEGGGSSHVNAHHLVTPLAAAPTNAKYAVGYSLTETAPNEELTKEAVQLAKQSDQVVFFAGFPERMETEGFDKDSIALPANQNALLREVLKVNPHVTVVLQNGSVVEMPWADGVPAIVETYLAGEAVGEATWDILTGKVNPSGKLSESFPLRLQDNPTYGTFARDHDEEDYHEGIFVGYRYYDLHEMPVRFPFGHGLSYTDFTYSDLTVSEEDNDVKVRFTVTNSGQVAGKEVAQVYVANHVSRVEMPVKELRDFTKLALAPGESKTVTLTLPRRAFSYYNVAQEQWEADNGEYEIMVGSSSRDIRLRTTFTLTIGVNPVGEITGDTYIGDIWNDQDPKVQAALKSSGLYEVLQPMMADKDWVAISANMPLRSLAATGIQEEVRDAFLRALK
In the case of B1, the Michaelis-Menten constant (Km) worked out at 1840 ± 70 µM, the kcat worked out at 407 s⁻¹ and the kcat/Km amounted to 221000 M⁻¹ s⁻¹.
